Read-outs that look alike come from different tables or passages of the source. One block for each molecule: values may come before it.
Assays:
[1] = biological target: stabilized microtubules polymerised from cow brain tubulin (cow (purified from cow brains)) (UniProt Q6B856); test: TIRF microscopy of GFP-protein decoration of immobilized microtubules
[2] = biological target: full length human GFP-CLASP2α (human) (UniProt O75122); test: optical trap rupture force
[3] = biological target: full length human GFP-CLASP2α (human) (UniProt O75122); test: TIRF microscopy of microtubules tethered to protein clusters on DNA origami
[4] = biological target: stabilized microtubules polymerised from cow brain tubulin (cow (purified from cow brains)) (UniProt Q6B856); test: TIRF microscopy of GFP-protein decoration of immobilized microtubules; remark: listed apart in the source

- Kd [1]: 0.5 nM
- end brightness [1]: 594 a.u.
Molecule: full length human GFP-CLASP2α (from UniProt O75122-3 1-1515) (natural protein)

- pulling force withstood without rupture (13 of 39 microtubules) [2]: > 15.2 pN
- time for which half of the microtubules stay attached by their end [3]: 4 h
Molecule: stabilized microtubules polymerised from cow brain tubulin (from UniProt Q6B856 1-445) (complex)
- pulling force at 50% survival of the attachment [2]: 14 pN

- end brightness [4]: 757 a.u.
B1: GFP-L-TOG2-S (domain or fragment)
chain: KVPAPKTSGNPANSARKPGSAGGPKVGAGASKEGGAGAVDEDDFIKAFTDVPSIQIYSSRELEETLNKIREILSDDKHDWDQRANALKKIRSLLVAGAAQYDCFFQHLRLLDGALKLSAKDLRSQVVREACITVAHLSTVLGNKFDHGAEAIVPTLFNLVPNSAKVMATSGCAAIRFIIRHTHVPRLIPLITSNCTSKSVPVRRRSFEFLDLLLQEWQTHSLERHAAVLVETIKKGIHDADAEARVEARKTYMGLRNHFPGEAETLYNSLEPSYQKSLQTYLKSSGSVASLPQSDRSSSSSQESLNRPFSSKWSTANPSTVAGRVSAGSSKASSLPGSLQRSRSDIDVNAAAGAKAHHAAGQSVRSGRLGAGALNAGSYASLEDTSDKLDGTASEDGRVRAKLSAPLAGMGNAKADSRGRSRTKMVSQSQPGSRSGSPGRVLTTTALSTVSSGVQRVLVNSASAQKRSKIPRSQGCSREASPSRLSVARSSRIPRPSVSQGCSREASRESSRDTSPVRSFQPLGPGYGISQSS

Source: paper doi:10.1101/2022.04.25.489454
